# Publication PMC10786891, “Massively parallel profiling of RNA-targeting CRISPR-Cas13d”
# Where a chain is given by its changes, count along the chain named. Names may count otherwise.
# T1: EsCas13d, nuclease-dead (Eubacterium siraeum, UniProt B0MS50, R295A;H300A;R849A;H854A)
# T1 sequence: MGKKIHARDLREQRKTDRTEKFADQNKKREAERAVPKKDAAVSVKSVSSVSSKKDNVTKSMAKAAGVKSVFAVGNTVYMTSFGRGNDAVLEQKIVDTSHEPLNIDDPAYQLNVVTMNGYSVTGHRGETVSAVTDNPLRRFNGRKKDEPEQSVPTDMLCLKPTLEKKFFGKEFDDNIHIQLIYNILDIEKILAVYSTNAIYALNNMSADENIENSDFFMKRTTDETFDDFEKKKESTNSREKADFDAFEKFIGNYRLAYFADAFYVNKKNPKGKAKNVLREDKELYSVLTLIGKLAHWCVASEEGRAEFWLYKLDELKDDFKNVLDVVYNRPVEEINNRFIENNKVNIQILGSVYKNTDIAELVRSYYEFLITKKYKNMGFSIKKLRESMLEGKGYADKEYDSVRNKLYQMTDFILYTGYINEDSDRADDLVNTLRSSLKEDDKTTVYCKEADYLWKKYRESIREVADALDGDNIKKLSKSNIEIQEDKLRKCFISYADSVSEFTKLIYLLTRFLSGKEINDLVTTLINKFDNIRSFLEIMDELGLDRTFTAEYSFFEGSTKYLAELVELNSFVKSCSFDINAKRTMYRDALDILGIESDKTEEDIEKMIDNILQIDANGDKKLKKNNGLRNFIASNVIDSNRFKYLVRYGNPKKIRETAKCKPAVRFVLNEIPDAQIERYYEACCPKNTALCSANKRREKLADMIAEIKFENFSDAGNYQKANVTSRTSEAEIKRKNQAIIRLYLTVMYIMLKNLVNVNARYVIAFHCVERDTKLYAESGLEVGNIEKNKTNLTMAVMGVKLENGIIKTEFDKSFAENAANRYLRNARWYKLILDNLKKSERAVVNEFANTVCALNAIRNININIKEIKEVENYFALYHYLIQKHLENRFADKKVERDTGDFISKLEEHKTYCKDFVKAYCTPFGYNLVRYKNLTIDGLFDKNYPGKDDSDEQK
# B1: target 2 MT 5'PFS UAU 3'PFS GAU (mixed)
# RNA 1: CACCCGUGCAAAAUUGCAGGGGUCUAAAACCUUCUCCAAAUUGUUUCAUCCU
# RNA 2: GGGAAUGGAUCCACAUCUACGAAUUCUAUAGGAUGAAACAAUUUGGAGAAGGAUAGAUCGGAAGAGCACACGU
# B2: target 2 MT 5'PFS CGG 3'PFS AAG (mixed)
# RNA 1: B1 RNA 1
# RNA 2: B1 RNA 2 with U27C, A28G, U29G, G52A, U54G
# B3: target 2 MT 5'PFS UAG 3'PFS CAG (mixed)
# RNA 1: B1 RNA 1
# RNA 2: B1 RNA 2 with U29G, G52C, U54G
# B4: target 2 MT 5'PFS GCG 3'PFS CUA (mixed)
# RNA 1: B1 RNA 1
# RNA 2: B1 RNA 2 with U27G, A28C, U29G, G52C, A53U, U54A
# B5: target 2 MT 5'PFS UCA 3'PFS ACU (mixed)
# RNA 1: B1 RNA 1
# RNA 2: B1 RNA 2 with A28C, U29A, G52A, A53C
# B6: target 2 MT 5'PFS AAC 3'PFS UUU (mixed)
# RNA 1: B1 RNA 1
# RNA 2: B1 RNA 2 with U27A, U29C, G52U, A53U
# B7: target 2 MT 5'PFS CGG 3'PFS AAU (mixed)
# RNA 1: B1 RNA 1
# RNA 2: B1 RNA 2 with U27C, A28G, U29G, G52A
# B8: target 2 MT 5'PFS UCA 3'PFS ACC (mixed)
# RNA 1: B1 RNA 1
# RNA 2: B1 RNA 2 with A28C, U29A, G52A, A53C, U54C
# B9: target 2 MT 5'PFS UCA 3'PFS ACG (mixed)
# RNA 1: B1 RNA 1
# RNA 2: B1 RNA 2 with A28C, U29A, G52A, A53C, U54G
# B10: target 2 MT 5'PFS UCA 3'PFS CAA (mixed)
# RNA 1: B1 RNA 1
# RNA 2: B1 RNA 2 with A28C, U29A, G52C, U54A
# B11: target 2 MT 5'PFS UGU 3'PFS CUA (mixed)
# RNA 1: B1 RNA 1
# RNA 2: B1 RNA 2 with A28G, G52C, A53U, U54A
# B12: target 2 MT 5'PFS UCU 3'PFS UUG (mixed)
# RNA 1: B1 RNA 1
# RNA 2: B1 RNA 2 with A28C, G52U, A53U, U54G
# B13: target 2 MT 5'PFS UCA 3'PFS ACA (mixed)
# RNA 1: B1 RNA 1
# RNA 2: B1 RNA 2 with A28C, U29A, G52A, A53C, U54A
# B14: target 2 MT 5'PFS CAC 3'PFS UUU (mixed)
# RNA 1: B1 RNA 1
# RNA 2: B1 RNA 2 with U27C, U29C, G52U, A53U
# B15: target 2 MT 5'PFS CUG 3'PFS CUG (mixed)
# RNA 1: B1 RNA 1
# RNA 2: B1 RNA 2 with U27C, A28U, U29G, G52C, A53U, U54G
# B16: target 2 MT 5'PFS CGC 3'PFS UGC (mixed)
# RNA 1: B1 RNA 1
# RNA 2: B1 RNA 2 with U27C, A28G, U29C, G52U, A53G, U54C
# B17: target 2 MT 5'PFS CUG 3'PFS CUU (mixed)
# RNA 1: B1 RNA 1
# RNA 2: B1 RNA 2 with U27C, A28U, U29G, G52C, A53U
# B18: target 2 MT 5'PFS AUU 3'PFS UAC (mixed)
# RNA 1: B1 RNA 1
# RNA 2: B1 RNA 2 with U27A, A28U, G52U, U54C
# B19: target 2 MT 5'PFS GCA 3'PFS UCA (mixed)
# RNA 1: B1 RNA 1
# RNA 2: B1 RNA 2 with U27G, A28C, U29A, G52U, A53C, U54A
# B20: target 2 MT 5'PFS GCG 3'PFS AUU (mixed)
# RNA 1: B1 RNA 1
# RNA 2: B1 RNA 2 with U27G, A28C, U29G, G52A, A53U
# B21: target 2 MT 5'PFS CGG 3'PFS AAA (mixed)
# RNA 1: B1 RNA 1
# RNA 2: B1 RNA 2 with U27C, A28G, U29G, G52A, U54A
# B22: target 2 MT 5'PFS CGG 3'PFS AAC (mixed)
# RNA 1: B1 RNA 1
# RNA 2: B1 RNA 2 with U27C, A28G, U29G, G52A, U54C
# B23: target 2 MT 5'PFS ACC 3'PFS CAU (mixed)
# RNA 1: B1 RNA 1
# RNA 2: B1 RNA 2 with U27A, A28C, U29C, G52C
# B24: target 2 MT 5'PFS GAA 3'PFS CUC (mixed)
# RNA 1: B1 RNA 1
# RNA 2: B1 RNA 2 with U27G, U29A, G52C, A53U, U54C
# B25: target 2 MT 5'PFS GAA 3'PFS CUA (mixed)
# RNA 1: B1 RNA 1
# RNA 2: B1 RNA 2 with U27G, U29A, G52C, A53U, U54A
# B26: target 2 MT 5'PFS UAG 3'PFS CAU (mixed)
# RNA 1: B1 RNA 1
# RNA 2: B1 RNA 2 with U29G, G52C
# B27: target 2 MT 5'PFS GAA 3'PFS CUG (mixed)
# RNA 1: B1 RNA 1
# RNA 2: B1 RNA 2 with U27G, U29A, G52C, A53U, U54G
# B28: target 2 MT 5'PFS UGU 3'PFS CUU (mixed)
# RNA 1: B1 RNA 1
# RNA 2: B1 RNA 2 with A28G, G52C, A53U
# B29: target 2 MT 5'PFS CUG 3'PFS CUC (mixed)
# RNA 1: B1 RNA 1
# RNA 2: B1 RNA 2 with U27C, A28U, U29G, G52C, A53U, U54C
# B30: target 2 MT 5'PFS UGU 3'PFS CUC (mixed)
# RNA 1: B1 RNA 1
# RNA 2: B1 RNA 2 with A28G, G52C, A53U, U54C
# B31: target 2 MT 5'PFS GAA 3'PFS CUU (mixed)
# RNA 1: B1 RNA 1
# RNA 2: B1 RNA 2 with U27G, U29A, G52C, A53U
# B32: target 2 MT 5'PFS AUU 3'PFS CAG (mixed)
# RNA 1: B1 RNA 1
# RNA 2: B1 RNA 2 with U27A, A28U, G52C, U54G
# B33: target 2 MT 5'PFS UCA 3'PFS CAG (mixed)
# RNA 1: B1 RNA 1
# RNA 2: B1 RNA 2 with A28C, U29A, G52C, U54G
# B34: target 2 MT 5'PFS UAG 3'PFS CAA (mixed)
# RNA 1: B1 RNA 1
# RNA 2: B1 RNA 2 with U29G, G52C, U54A
# B35: target 2 MT 5'PFS CUG 3'PFS CUA (mixed)
# RNA 1: B1 RNA 1
# RNA 2: B1 RNA 2 with U27C, A28U, U29G, G52C, A53U, U54A
# B36: target 1 insG 3' of 14,insC 3' of 3 (mixed)
# RNA 1: CACCCGUGCAAAAAUGCAGGGGUCUAAAACUGAGCGGAUAACCUCUCUAUGG
# RNA 2: GGGAAUGGAUCCACAUCUACGAAUUCGUACCAUAGAGAGGGUUAUCCGCUCCACCGAGAUCGGAAGAGCACACGU
# B37: target 1 complement block 6-8 (mixed)
# RNA 1: B36 RNA 1
# RNA 2: GGGAAUGGAUCCACAUCUACGAAUUCGUACCAUAGAGAGGUUAAGGGCUCACCGAGAUCGGAAGAGCACACGU
# B38: target 1 U10C,A14G (mixed)
# RNA 1: B36 RNA 1
# RNA 2: B37 RNA 2 with A38G, U42C, A44U, G45C, G46C
# Biological target: T1, EsCas13d, nuclease-dead
# Assay: crRNA (strand 1, pre-loaded); Mg2+; 40 mM Tris-HCl pH 7.5, 150 mM NaCl, 6 mM MgCl2, 1 mM DTT, 0.1% Tween-20, 0.2 mg/ml BSA; 25 C; 10 min per concentration, then washed
# Conditions: tags: His6-TwinStrep-SUMO cleaved; N-terminal SNAP kept (SNAP-Surface 488); label: 3' end held by stalled T7 RNA polymerase
row,Binder,Kd [nM]
1,B1,~44
2,B2,4.4 ± 0.5
3,B3,2.68 ± 0.21
4,B4,14.3 ± 2.7
5,B5,7 ± 1.4
6,B6,7.1 ± 1.3
7,B7,4.8 ± 0.7
8,B8,13.6 ± 3.1
9,B9,3.6 ± 0.6
10,B10,5.3 ± 1.2
11,B11,12.9 ± 2
12,B12,16.9 ± 2.8
13,B13,3.6 ± 0.5
14,B14,5.2 ± 0.8
15,B15,2.67 ± 0.23
16,B16,6 ± 0.9
17,B17,3.55 ± 0.34
18,B18,11.9 ± 2.2
19,B19,10.9 ± 2.1

row,Binder,Kd [nM]
1,B20,12.6 ± 2
2,B21,5.7 ± 0.9
3,B22,4.2 ± 0.4
4,B23,10 ± 4
5,B24,16 ± 4
6,B25,6.9 ± 1.1
7,B26,3.7 ± 0.5
8,B27,11.2 ± 1.4
9,B28,14.6 ± 2
10,B29,5.7 ± 0.6
11,B30,~50
12,B31,15.1 ± 2.7
13,B32,6.9 ± 1.1
14,B33,3.1 ± 0.4
15,B34,1.92 ± 0.26
16,B35,3.2 ± 0.4
17,B36,10.5 ± 0.9
18,B37,8.69 ± 0.24
19,B38,34.1 ± 2.8
